This is an account of results in patent US20250154202A1 (published 2025).

The chains are these.
B1: Ac-Ser-Arg-Leu-Glu-(cyclo5)Glu-Glu-Leu-Arg-(cyclo9)Lys-Arg-Leu-Thr-Glu-NH2 (peptide)
peptide: SRLEEELRKRLTE
modifications: lactam 5-9; not fully specified (N-terminus, C-terminus)
notes: also called SD15194
B2: Ac-Pro-Ser-Arg-Leu-(cyclo5)Glu-Glu-Glu-Leu-(cyclo9)Lys-Arg-Arg-Leu-Thr-Glu-NH2 (peptide)
peptide: Ac-PSRLEEELKRRLTE-NH2
modifications: lactam 5-9
SMILES: CC(=O)N1CCC[C@H]1C(=O)N[C@@H](CO)C(=O)N[C@@H](CCCNC(=N)N)C(=O)N[C@@H](CC(C)C)C(=O)N[C@H]1CCC(=O)NCCCC[C@@H](C(=O)N[C@@H](CCCNC(=N)N)C(=O)N[C@@H](CCCNC(=N)N)C(=O)N[C@@H](CC(C)C)C(=O)N[C@H](C(=O)N[C@@H](CCC(=O)O)C(N)=O)[C@@H](C)O)NC(=O)[C@H](CC(C)C)NC(=O)[C@H](CCC(=O)O)NC(=O)[C@H](CCC(=O)O)NC1=O
notes: Cyclic ALFA tag; also called SD15806
B3: Ac-Pro-Ser-Arg-Leu-Glu-(cyclo6)Glu-Glu-Leu-Arg-(cyclo10)Lys-Arg-Leu-Thr-Glu-NH2 (peptide)
peptide: Ac-PSRLEEELRKRLTE-NH2
modifications: lactam 6-10
SMILES: CC(=O)N1CCC[C@H]1C(=O)N[C@@H](CO)C(=O)N[C@@H](CCCNC(=N)N)C(=O)N[C@@H](CC(C)C)C(=O)N[C@@H](CCC(=O)O)C(=O)N[C@H]1CCC(=O)NCCCC[C@@H](C(=O)N[C@@H](CCCNC(=N)N)C(=O)N[C@@H](CC(C)C)C(=O)N[C@H](C(=O)N[C@@H](CCC(=O)O)C(N)=O)[C@@H](C)O)NC(=O)[C@H](CCCNC(=N)N)NC(=O)[C@H](CC(C)C)NC(=O)[C@H](CCC(=O)O)NC1=O
notes: Cyclic ALFA tag; also called SD15341
B4: Ac-Pro-Ser-Arg-Leu-Glu-(cyclo6)Glu-Glu-Leu-Arg-(cyclo10)dLys-Arg-Leu-Thr-Glu-NH2 (peptide)
peptide: Ac-PSRLEEELR[dK]RLTE-NH2
modifications: lactam 6-10
SMILES: CC(=O)N1CCC[C@H]1C(=O)N[C@@H](CO)C(=O)N[C@@H](CCCNC(=N)N)C(=O)N[C@@H](CC(C)C)C(=O)N[C@@H](CCC(=O)O)C(=O)N[C@H]1CCC(=O)NCCCC[C@H](C(=O)N[C@@H](CCCNC(=N)N)C(=O)N[C@@H](CC(C)C)C(=O)N[C@H](C(=O)N[C@@H](CCC(=O)O)C(N)=O)[C@@H](C)O)NC(=O)[C@H](CCCNC(=N)N)NC(=O)[C@H](CC(C)C)NC(=O)[C@H](CCC(=O)O)NC1=O
notes: Cyclic ALFA tag; also called SD15808
B5: Ac-Pro-Ser-Arg-Leu-Glu-(cyclo6)Lys-Glu-Leu-Arg-(cyclo10)Glu-Arg-Leu-Thr-Glu-NH2 (peptide)
peptide: Ac-PSRLEKELRERLTE-NH2
modifications: lactam 6-10
SMILES: CC(=O)N1CCC[C@H]1C(=O)N[C@@H](CO)C(=O)N[C@@H](CCCNC(=N)N)C(=O)N[C@@H](CC(C)C)C(=O)N[C@@H](CCC(=O)O)C(=O)N[C@H]1CCCCNC(=O)CC[C@@H](C(=O)N[C@@H](CCCNC(=N)N)C(=O)N[C@@H](CC(C)C)C(=O)N[C@H](C(=O)N[C@@H](CCC(=O)O)C(N)=O)[C@@H](C)O)NC(=O)[C@H](CCCNC(=N)N)NC(=O)[C@H](CC(C)C)NC(=O)[C@H](CCC(=O)O)NC1=O
notes: Cyclic ALFA tag; also called SD15805
B6: Ac-Ser-Arg-Leu-Glu-Glu-Glu-Leu-Arg-(cyclo9)Lys-Arg-Leu-Thr-(cyclo13)Glu-NH2 (peptide)
peptide: Ac-SRLEEELRKRLTE-NH2
modifications: lactam 9-13
SMILES: CC(=O)N[C@@H](CO)C(=O)N[C@@H](CCCNC(=N)N)C(=O)N[C@@H](CC(C)C)C(=O)N[C@@H](CCC(=O)O)C(=O)N[C@@H](CCC(=O)O)C(=O)N[C@@H](CCC(=O)O)C(=O)N[C@@H](CC(C)C)C(=O)N[C@@H](CCCNC(=N)N)C(=O)N[C@H]1CCCCNC(=O)CC[C@@H](C(N)=O)NC(=O)[C@H]([C@@H](C)O)NC(=O)[C@H](CC(C)C)NC(=O)[C@H](CCCNC(=N)N)NC1=O
notes: Cyclic ALFA tag; also called SD15193
B7: Ac-Ser-Arg-Leu-Glu-(cyclo5)Asp-Glu-Leu-Arg-(cyclo9)Lys-Arg-Leu-Thr-Glu-NH2 (peptide)
peptide: Ac-SRLEDELRKRLTE-NH2
modifications: lactam 5-9
SMILES: CC(=O)N[C@@H](CO)C(=O)N[C@@H](CCCNC(=N)N)C(=O)N[C@@H](CC(C)C)C(=O)N[C@@H](CCC(=O)O)C(=O)N[C@H]1CC(=O)NCCCC[C@@H](C(=O)N[C@@H](CCCNC(=N)N)C(=O)N[C@@H](CC(C)C)C(=O)N[C@H](C(=O)N[C@@H](CCC(=O)O)C(N)=O)[C@@H](C)O)NC(=O)[C@H](CCCNC(=N)N)NC(=O)[C@H](CC(C)C)NC(=O)[C@H](CCC(=O)O)NC1=O
notes: Cyclic ALFA tag; also called SD15196
B8: Ac-Ser-Arg-Leu-Glu-(cyclo5)Glu-Glu-Leu-(cyclo8)Lys-Arg-Arg-Leu-Thr-Glu-NH2 (peptide)
peptide: Ac-SRLEEELKRRLTE-NH2
modifications: lactam 5-8
SMILES: CC(=O)N[C@@H](CO)C(=O)N[C@@H](CCCNC(=N)N)C(=O)N[C@@H](CC(C)C)C(=O)N[C@@H](CCC(=O)O)C(=O)N[C@H]1CCC(=O)NCCCC[C@@H](C(=O)N[C@@H](CCCNC(=N)N)C(=O)N[C@@H](CCCNC(=N)N)C(=O)N[C@@H](CC(C)C)C(=O)N[C@H](C(=O)N[C@@H](CCC(=O)O)C(N)=O)[C@@H](C)O)NC(=O)[C@H](CC(C)C)NC(=O)[C@H](CCC(=O)O)NC1=O
notes: Cyclic ALFA tag; also called SD15192
B9: Ac-Ser-Arg-Leu-Glu-Glu-Glu-Leu-Arg-Arg-Arg-Leu-Thr-Glu-NH2 (peptide)
peptide: Ac-SRLEEELRRRLTE-NH2
notes: Linear ALFA tag; also called SD15197

Bridge positions count the residues as written; N and C are the ends. Square brackets hold non-standard residues; d marks the D form. Ends that are not written are not given here.

The first assay deals with T1, biotinylated NbALFA (NanoTag) (biotinylated (site not stated)).
T1 construct: Bought from NanoTag and captured on the SPR chip through biotin; also called NbALFA-nanobody; Nanobody
T1 sequence (VHH, as listed by the source): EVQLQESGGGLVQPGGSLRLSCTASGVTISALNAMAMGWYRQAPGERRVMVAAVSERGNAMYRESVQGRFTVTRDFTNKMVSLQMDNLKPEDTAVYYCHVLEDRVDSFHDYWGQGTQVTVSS
As to the kind of experiment: SPR, Biacore T200, biotinylated NbALFA captured on Biotin CAPture chip, peptide as analyte, multi-cycle kinetics, 1:1 model, 25 C. On the procedure: Affinity measurements were performed using a Biacore T200 (GE Healthcare, Biacore T200 control Software 3.2). For affinity measurement, the Biotin CAPture kit, series S (Cytiva Europe, Cat. no. 28920234) was utilized. A freshly docked Biotin CAPture chip was rehydrated overnight in the instrument (standby mode). The following day, the chip surface was conditioned three times with regeneration solution (6 M guanidine-HCl, 0.25 M NaOH) for 60 s at 10 μL/min on flow cell (FC) 1 and FC2. Subsequently, the Biotin CAPture reagent (Cytiva Europe, Cat. no. 29423383) was applied for 300 s at 2 μL/min on FC1 and FC2, followed by capturing of 25 nM biotinylated NbALFA (NanoTag). The immobilization of the Nanobody was done for 180 s at 10 μL/min on FC2 followed by quenching of unbound streptavidin by 0.1 mM biocytin for 60 s and 30 μL/min on both flow cells. […] injections of 10 nM, 5 nM, 2.5 nM, 1.25 nM, 0.625 nM and 0 nM (blank control) of cyclic ALFA variants were performed over both flow cells for 120 s with a flow rate of 40 μL/min, followed by dissociation for 1500 s. After each cycle, the surface was regenerated for 120 s with 10 μL/min using regeneration solution. All measurements were performed at 25° C. using HBS-EP+ buffer (Cytiva Europe, Cat. no BR100669). The control responses from FC1 were subtracted by the sample measurement in FC2 (FC2−FC1) followed by subtraction of the 0 nM blank injection. Resulting binding curves of this multi cycle kinetic experiment were fitted using the Biacore T200 Evaluation Software 3.2 and a 1:1 binding model.
In general terms: Surface plasmon resonance follows binding to a sensor surface in real time, without labels.
What is called Kd is a measure of binding affinity in units of concentration. The term koff denotes the first-order rate constant of dissociation. Low values mean a long-lived complex, high ones a short-lived complex. What is called kon is a measure of how fast the partners come together. Read a low kon as slow association. The molecule B1 returned a Kd of 37.6 pM, a koff of 0.00067 s⁻¹ and a kon of 1.78e+07 M⁻¹ s⁻¹.

B2: binding was characterised by a dissociation constant (Kd) of 1430 pM, the koff stood at 4.94 s⁻¹ and the on-rate constant (kon) was found to be 3.44e+09 M⁻¹ s⁻¹.

As for B3, the Kd is 19.4 pM, the koff worked out at 0.000361 s⁻¹ and the kon is 1.86e+07 M⁻¹ s⁻¹.

The molecule B4 yielded a Kd of 38 pM, a koff of 0.000513 s⁻¹ and a kon of 1.35e+07 M⁻¹ s⁻¹.

B5 returned a Kd of 103 pM, a koff of 0.000964 s⁻¹ and a kon of 9.33e+06 M⁻¹ s⁻¹.

Take B6: binding was characterised by a dissociation constant (Kd) of 55.6 pM, the koff stood at 0.00109 s⁻¹ and the kon stood at 1.95e+07 M⁻¹ s⁻¹.

B7 yielded a Kd of 436 pM, a koff of 0.0079 s⁻¹ and a kon of 1.81e+07 M⁻¹ s⁻¹.

Regarding B8, the affinity, expressed as Kd, was 55.1 pM; the koff came to 0.000577 s⁻¹; the kon was found to be 1.05e+07 M⁻¹ s⁻¹.

The molecule B9 gave a Kd of 11.7 pM, a koff of 0.000593 s⁻¹ and a kon of 5.05e+07 M⁻¹ s⁻¹.

The next assay has as its target anti-ALFA VHH. As to the kind of experiment: dose-response curve fit (log(agonist) vs. response, variable slope), FIG. 2; assay format not described; unit from paragraph 98.
For orientation: EC50 means the concentration needed to bring the measured effect to its halfway point. Low readings indicate a more potent agent, high ones a less potent agent. In turn, B1 displayed an EC50 of 5980 pM.

As to B6, the EC50 worked out at 6050 pM. This EC50 and that of the molecule before are within 1.5-fold of each other.

On to B7, for which the EC50 turned out to be 377000 pM.

Molecule B8 had an EC50 of 5980 pM.

Turning to B9, the midpoint of the response, the EC50, lay at 2600 pM.

The target in another assay is anti-ALFA VHH. As to the kind of experiment: dose-response curve fit (log(agonist) vs. response, variable slope), FIG. 2; assay format not described.
Sequence of anti-ALFA VHH (VHH, as listed by the source): as above
B1 gave a Bottom of 0.159, a LogEC50 of 0.776, a Span of 1.27 and a Top of 1.43.

In turn, B6 gave a Bottom of 0.145, a LogEC50 of 0.782, a Span of 1.29 and a Top of 1.44.

Regarding B7, the Bottom was 0.0167, the LogEC50 was determined as 2.58, the Span came out at 1.41 and the Top was determined as 1.43.

B8 displayed a Bottom of 0.152, a LogEC50 of 0.776, a Span of 1.2 and a Top of 1.35.

For the molecule B9, the Bottom was determined as 0.097, the LogEC50 came to 0.414, the Span stood at 1.29 and the Top turned out to be 1.39.
